B1: VASH1-SVBP complex, VASH1 L226A (complex)
chain 1: not shown
chain 2: MDPPARKEKTKVKESVSRVEKAKQKSAQQELKQRQRAEIYALNRVMTELEQQQFDEFCKQMQPPGE
B2: VASH1^44–315-SVBP^1–66 heterodimer (complex)
chain 1: not shown
chain 2: B1 chain 2

How the values were obtained:
purified tubulin dimer [1] = assay: SPR; VASH1 L226A/C169S
purified tubulin dimer [2] = assay: SPR

Binder	Kd (purified tubulin dimer [1]) [µM]	Kd (purified tubulin dimer [2]) [µM]
B1	2.1	–
B2	–	0.32
